Results on five molecules are retold here after US12359192B2, “Methods and compositions for display of macrocyclic peptides” (University of Rochester, priority 2013, dated 2025).

The target of assay [1] is T1, streptavidin (Streptomyces avidinii, UniProt P22629).
T1 construct: purchased Sigma-Aldrich
Put plainly: in-solution inhibition (competitive binding) assay for streptavidin binding affinity. Conditions: versus cyclo[S(OpgY)[…]].
Description: Then, a fixed amount of streptavidin-horseradish peroxidase conjugate is added to the plate in the presence of varying amount of the bicyclic or cyclic peptide.

Assay [2] concerns the target T2, Keap1 Kelch domain (KKD) (Homo sapiens, UniProt Q14145).
T2 construct: poly-His tag with TEV protease cleavable linker (N)
Put plainly: direct binding assay with plate-immobilized Keap1 Kelch domain (KKD) and HRP-conjugated anti-FLAG antibody. To be noted: linear version, O2beY substituted with OpgY. From the text:
FIG. 46A-FIG. 46C depict the selection of macrocyclic peptide inhibitors of the Keap1/Nrf2 interaction using methods disclosed herein. […] KD values correspond to the FLAG-tagged CBD-fused peptide macrocycles. FIG. 46B depicts binding curves for selected macrocyclic peptides as determined using a direct binding assay with plate-immobilized KKD and HRP-conjugated anti-FLAG antibody for detection of the bound peptide.
FIG. 47A-FIG. 47B depicts the selection of Keap1 binding macrocyclic peptides from a naïve macrocyclic peptide phage display library. […] FIG. 47B depicts the binding curves binding curves for selected macrocyclic peptides as determined using a direct binding assay with plate-immobilized KKD and HRP-conjugated anti-FLAG antibody for detection of the bound peptide.
The macrocyclic peptide phage display system of FIG. 43 was further applied to discover macrocyclic peptides capable of targeting a biomedically relevant protein-protein interaction such as the interaction between the Kelch-like ECH-associated protein 1 (Keap1) and transcriptional regulator Nrf2. […] The purified FLAG-tagged cyclic peptides were then tested for their ability to bind the Keap1 Kelch domain (KKD) using an in vitro assay, in which peptide binding to plate-immobilized KKD is detected using a HRP-conjugated anti-FLAG antibody (FIG. 46B). […]

Assay [3] has as its target T3, Keap1 Kelch Domain (KDD) (Homo sapiens, UniProt Q14145).
T3 construct: poly-His tag with TEV protease cleavable linker (N)
The assay is described as follows: KD (nM). From the text: Table printed on a drawing sheet, FIG. 47A
Head of the field: KD (nM)
The patent's description of the figure: FIG. 47A-FIG. 47B depicts the selection of Keap1 binding macrocyclic peptides from a naïve macrocyclic peptide phage display library. FIG. 47A depicts the naïve library of i/i+6-linked macrocyclic peptides (X=NNK; Y*=O2beY) and the sequences and binding affinity for selected macrocyclic Keap1-binding peptides isolated after panning the macrocyclic peptide display library against immobilized Keap1 Kelch Domain (KDD). FIG. 47B depicts the binding curves binding curves for selected macrocyclic peptides as determined using a direct binding assay with plate-immobilized KKD and HRP-conjugated anti-FLAG antibody for detection of the bound peptide.
First copying reader's note: Residue columns have no printed head; a drawn thioether linker joins Y* (first residue) and C (last residue), and the KD cells hold value ± error for binding to the Keap1 Kelch Domain (KKD).
Where the first naming reader finds the target: description_of_the_figure: isolated after panning the macrocyclic peptide display library against immobilized Keap1 Kelch Domain (KDD)

Assay [4] concerns the target T1, streptavidin. Put plainly: direct binding assay with plate-immobilized streptavidin and HRP-conjugated anti-FLAG antibody. To be noted: CBD alone (tag control). From the text:
FIG. 45A-FIG. 45C depict the affinity selection of streptavidin binding peptide macrocycles using methods disclosed herein. […] KD values correspond to the corresponding FLAG-macrocycle-CBD constructs in purified form. FIG. 45B depicts binding curves for selected peptide macrocycle hits as determined using a direct binding assay with plate-immobilized streptavidin and HRP-conjugated anti-FLAG antibody for detection of the bound peptide. […] FIG. 45D depicts phage enrichment over the four rounds of affinity selection and amplification as determined via the phage titer assay.
Studies were performed to assess the functionality of the phage display-based strategy for functional selection of thioether-linked macrocyclic peptides (FIG. 43) that can bind to a target protein. […] To this end, three peptide sequences from the ‘-GD’ family and two from the ‘-FD’ family, respectively, were subcloned into a pET22 vector for expression of the corresponding macrocyclic peptides fused to a N-terminal FLAG tag and a C-terminal chitin binding domain (CBD) and poly-histidine tag to facilitate purification and quantification. […]
Binding Assays. […] Equilibrium dissociation constants (KD) were determined by fitting the dose-response curves to a 1:1 binding isotherm equation via nonlinear regression using SigmaPlot. Mean values and standard deviations were calculated from experiments performed in triplicate.

Numbered stars: 1 amine (or outer) side, 2 acyl side, 3 side chain; on linkers, the order of the positions; unused ones are H or OH. Bridge positions count the residues as written; N and C are the ends. Peptide text beside a SMILES is read from it. * marks the point of attachment. CH2CH2 = C(C[*:2])[*:1]; Propargyl = C#CC* A value given as a limit tells only on which side of the number the result lay.

T1 sequence (P22629 25-183, species assumed): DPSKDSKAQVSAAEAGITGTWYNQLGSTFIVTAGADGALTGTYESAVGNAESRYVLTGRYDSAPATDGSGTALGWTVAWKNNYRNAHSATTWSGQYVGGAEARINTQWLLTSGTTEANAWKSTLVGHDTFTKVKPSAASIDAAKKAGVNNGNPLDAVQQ
T2 sequence (Q14145 321-609 limits assumed): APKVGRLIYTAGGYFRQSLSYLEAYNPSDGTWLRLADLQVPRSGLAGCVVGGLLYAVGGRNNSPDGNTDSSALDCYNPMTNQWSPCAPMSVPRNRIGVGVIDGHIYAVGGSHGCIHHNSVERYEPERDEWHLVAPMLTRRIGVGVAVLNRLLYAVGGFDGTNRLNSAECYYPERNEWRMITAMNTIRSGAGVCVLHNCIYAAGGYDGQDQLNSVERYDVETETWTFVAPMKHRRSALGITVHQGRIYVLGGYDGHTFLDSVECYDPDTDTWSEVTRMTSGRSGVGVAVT

Regarding `CC(C)[C@@H]1NC(=O)[C@H](CC(N)=O)NC(=O)[C@H]([C@@H](C)O)NC(=O)[C@@H]2Cc3ccc(cc3)OCCSC[C@H](NC(=O)[C@H](Cc3ccccc3)NC(=O)[C@H](CCC(N)=O)NC(=O)[C@@H]3CCCN3C(=O)[C@H](Cc3c[nH]cn3)NC1=O)C(=O)N[C@@H](CC(N)=O)C(=O)N[C@@H](C)C(=O)N[C@@H](CS)C(=O)N2` [cStrep3(C)—Z8C(p-2beF)] (cyclo(ACYTNVHPQFCN); linker 3-11 via CH2CH2), the “increase in streptavidin binding affinity as compared to the monocyclic counterpart” value in assay [1] was more than 2 fold.

Turning to `C#CCOc1ccc(C[C@H](N)C(=O)N[C@@H](CC(=O)O)C(=O)N[C@@H](CO)C(=O)N[C@@H](CCC(=O)O)C(=O)N[C@H](C(=O)NCC(=O)N[C@@H](CCC(=O)O)C(=O)N[C@@H](CS)C(=O)O)[C@@H](C)O)cc1` [linear version of KKD-m1] (H-Y(Propargyl)DSETGEC-OH; N-terminus and C-terminus assumed), the “lower affinity for Keap1 relative to KKD-m1” value in assay [2] is given as “five-fold lower affinity”.

With “Y* D A E T G E C (YDAETGEC; not fully specified; modified tyrosine Y*; KKD(6X)-m2) [SEQ ID NO: 251 | KKD(6X)-m2]”, the Kd in assay [3] is 40 ± 13 nM.

Turning to “Y* D I E T G E C (YDIETGEC; not fully specified; modified tyrosine Y*; KKD(6X)-m1) [SEQ ID NO: 250 | KKD(6X)-m1]”, in assay [3], the Kd was found to be 43 ± 14 nM.

B1: CBD: chitin binding domain tag alone (protein)
chain: MKIEEGKLTNPGVSAWQVNTAYTAGQLVTYNGKTYKCLQPHTSLAGWEPSNVPALWQLQNNGNNGLELRHG
Turning to B1, the binding to streptavidin result in assay [4] is given as “no detectable binding”.
